Assay results from US20070054846A1, “Bcl-w structure and uses therefor” (priority 2002, published 2007).

T1: full length Bcl-w (Homo sapiens, UniProt Q92843, Q133R)
T1 sequence (Q92843 1-193 Q133R): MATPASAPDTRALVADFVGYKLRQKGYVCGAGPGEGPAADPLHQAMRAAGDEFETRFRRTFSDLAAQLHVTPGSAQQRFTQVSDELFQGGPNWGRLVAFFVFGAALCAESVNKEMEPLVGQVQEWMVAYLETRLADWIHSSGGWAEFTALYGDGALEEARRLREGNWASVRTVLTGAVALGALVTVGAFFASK

T2: Bcl-wΔC10 (Homo sapiens, UniProt Q92843, A128E/Q133R)
T2 construct: made in house; host or cells: E. coli BL21(DE3)
T2 sequence (Q92843 1-183 A128E/Q133R): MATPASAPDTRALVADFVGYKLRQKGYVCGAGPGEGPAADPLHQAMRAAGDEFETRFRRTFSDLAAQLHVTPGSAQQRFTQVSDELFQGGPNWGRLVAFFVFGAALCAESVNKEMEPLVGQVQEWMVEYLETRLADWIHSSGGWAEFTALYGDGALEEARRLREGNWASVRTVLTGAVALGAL

T3: Bcl-wΔC29 (Homo sapiens, UniProt Q92843, Q133R)
T3 construct: GST (N, cleaved yes); made in house; host or cells: E. coli BL21(DE3)
T3 sequence (Q92843 1-164 Q133R): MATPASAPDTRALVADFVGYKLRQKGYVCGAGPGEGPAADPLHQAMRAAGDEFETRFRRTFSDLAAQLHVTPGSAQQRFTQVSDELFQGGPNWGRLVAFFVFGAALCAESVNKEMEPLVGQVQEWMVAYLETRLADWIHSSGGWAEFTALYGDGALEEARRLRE

T4: Bcl-wΔC20 (Homo sapiens, UniProt Q92843, Q133R)
T4 construct: made in house; host or cells: E. coli BL21(DE3)
T4 sequence (Q92843 1-173 Q133R): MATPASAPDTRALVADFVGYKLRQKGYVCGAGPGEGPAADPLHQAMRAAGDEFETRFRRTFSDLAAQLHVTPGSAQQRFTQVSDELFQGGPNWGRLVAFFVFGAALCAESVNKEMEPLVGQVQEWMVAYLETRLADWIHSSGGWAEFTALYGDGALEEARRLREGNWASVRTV


Tests used:
FDC-P1 myeloid cells = test: Survival assay of cells overexpressing Bcl-w constructs; format: cell-based; conditions: overexpressed FLAG-tagged protein, IL-3 withdrawal, γ-irradiation or cytotoxic drugs
Experimental: Like its cousins Bcl-2 and Bcl-xL, Bcl-w overexpression protects cells from diverse death stimuli, including cytokine deprivation and γ-irradiation (Gibson et al., 1996).
Survival assays were performed as described previously (O'Connor et al., 1998; Huang et al., 1998; Wilson-Annan et al., 2003; and references therein). Briefly, cells (2−5×10^4 per time point) were left untreated, deprived of their essential growth factor IL-3, exposed to 10Gy γ-irradiation (provided by a ^60Co source), 1-100 nM staurosprorine (Sigma). Cell viability was quantified by flow cytometric analysis of cells excluding 5 μg/mL PI (Sigma) using a FACScan (Becton Dickinson). Each time point was performed in triplicate on at least 3 independent clones of each genotype and the experiments repeated at least 3 times.

full length Bcl-w [1] = biological target: T1, full length Bcl-w; test: GST pull-down; format: binding; set-up: N-terminally FLAG-tagged full-length or C-terminally truncated Bcl-w; expressed in transfected cells; host or cells: 293T human embryonic kidney cells (pEF-based vector, transient)
Source text: (§1) Human Bcl-w and mouse BimL were expressed as glutathione-S-transferase (GST) fusion proteins in E. coli BL21(DE3) and purified by affinity chromatography using Glutathione Sepharose (APB; Amersham Pharmacia Biotech). Following purification of the GST-fusion proteins Bcl-w and Bim were released from GST using PreScission protease (APB) and then further purified by size exclusion chromatography using a Superdex-75 column. All the purified proteins have 5 additional N-terminal residues (GPLGS) as a result of cloning. Isotopically labelled proteins were prepared as described previously (Day et al., 1999). Samples of Bcl-wΔC10 used for NMR contained ˜1.0 mM protein in 50 mM sodium phosphate (pH 6.7), 70 mM NaCl, 2 mM tris-(2-carboxyethyl) phosphine (TCEP) and 0.04% sodium azide in H2O:^2H2O (95:5). The Bcl-wΔC5 sample contained 0.4 mM protein in the same buffer. Site specific mutants of BimL and Bcl-w were generated using a PCR based strategy as described previously (Day et al., 1999). The sequence of all clones was confirmed by sequencing.
(§2) Direct interactions between Bcl-w and BimL were monitored using GST pull-down experiments. These were performed in 100 μl of PBS (phosphate buffered saline pH 7.3) containing 2 mM DTT. Typically excess soluble proteins were added to equivalent amounts of resin bound proteins. […]

Bcl-wΔC10 = biological target: T2, Bcl-wΔC10; test: GST pull-down; format: binding
Source text: as §1
(§3) Direct interactions between Bcl-w and BimL were monitored using GST pull-down experiments. These were performed in 100 μl of PBS (phosphate buffered saline pH 7.3) containing 2 mM DTT. Typically excess soluble proteins were added to equivalent amounts of resin bound proteins. After incubation at room temperature for 30 minutes the resin was pelleted and then washed twice with 200 μl of PBS containing 0.2% Tween 20. After removal of the second wash 10 μl of SDS-PAGE sample buffer was added to each sample and the samples were boiled then loaded onto 16% polyacrylamide gels that were electrophoresed and stained with Coomassie Blue R250. The staining intensity of the bound soluble protein indicated the strength of the interaction between the two proteins.

Bcl-wΔC29 [2] = biological target: T3, Bcl-wΔC29; test: GST pull-down; format: binding
Source text: as §1, §3

Bcl-wΔC20 = biological target: T4, Bcl-wΔC20; test: GST pull-down; format: binding
Source text: as §1, §3

Bcl-wΔC29 [3] = biological target: T3, Bcl-wΔC29; test: BIAcore surface plasmon resonance, truncated Bcl-w in solution on immobilised Bim; format: binding; conditions: for Kd: Bcl-w truncated by 29 residues at the C-terminus
Source text: as §1
Analysis of protein interactions by surface plasmon resonance was carried out on a BIAcore 2000 biosensor (BIAcore). For the immobilisation to BIAcore CM 5 sensorchips (BIAcore), wild-type or mutant Bim proteins were buffer exchanged into 20 mM Na-acetate, pH 4.5. N-hydroxysuccinimide coupling and binding analysis was done as described previously (Lackmann et al., 1997). In order to minimise mass-transport mediated effects the kinetic experiments were routinely carried out at 20 μl/min. Bcl-w binding at concentrations between 2 and 0.03 μM in running buffer (10 mM HEPES, pH 7.4, 150 mM NaCl, 3.4 mM EDTA, 0.005% Tween 20) was performed on sensorchip surfaces derivatised on parallel channels with a non-relevant protein, BimLΔC27 and BimLΔC27-L94A. The binding kinetics were derived from the sensorgrams following subtraction of baseline responses (measured on the control channel) by ‘global analysis’ using the BIA Evaluation software (vers. 3.02, BIAcore). […]

full length Bcl-w [4] = biological target: T1, full length Bcl-w; test: BIAcore surface plasmon resonance, Bcl-w protein in solution on immobilised Bim; format: binding; set-up: GST (N, cleaved yes); made in house; host or cells: E. coli BL21(DE3); conditions: for Kd: 1:1 Langmuir model, global analysis
Source text: as §1
Analysis of protein interactions by surface plasmon resonance was carried out on a BIAcore 2000 biosensor (BIAcore). For the immobilisation to BIAcore CM 5 sensorchips (BIAcore), wild-type or mutant Bim proteins were buffer exchanged into 20 mM Na-acetate, pH 4.5. N-hydroxysuccinimide coupling and binding analysis was done as described previously (Lackmann et al., 1997). In order to minimise mass-transport mediated effects the kinetic experiments were routinely carried out at 20 μl/min. Bcl-w binding at concentrations between 2 and 0.03 μM in running buffer (10 mM HEPES, pH 7.4, 150 mM NaCl, 3.4 mM EDTA, 0.005% Tween 20) was performed on sensorchip surfaces derivatised on parallel channels with a non-relevant protein, BimLΔC27 and BimLΔC27-L94A. The binding kinetics were derived from the sensorgrams following subtraction of baseline responses (measured on the control channel) by ‘global analysis’ using the BIA Evaluation software (vers. 3.02, BIAcore). The surface of the chip was regenerated with 50 mM 1,2-diethylamine containing 0.1% Triton X100, followed by two washes with running buffer.

full-length Bcl-xL = biological target: T5, full-length Bcl-xL (Homo sapiens, UniProt Q07817); test: Co-immunoprecipitation from cell extracts; format: binding; conditions: FLAG-tagged full-length Bcl-xL
T5 construct: FLAG-tagged full-length Bcl-xL or a C-terminally truncated mutant (ΔC24); expressed in transfected cells
Source text: (§4) Bcl-xL and Bcl-2 also contain hydrophobic residues at their C-termini, similar to those found in Bcl-w (FIG. 1C), yet the low level of sequence identity following α8 and the absence of 3D-structural information, makes prediction of their conformation difficult. Since BCl-xL, like Bcl-w, is only partially membrane-bound in healthy cells (Hsu et al., 1997), we compared the ability of FLAG-tagged full-length Bcl-xL or a C-terminally truncated mutant (ΔC24) to bind to BimL or the […]L94A B3 mutant.
Cell culture, stable transfections into FDC-P1, transient transfections into 293T human embryonic kidney cells, metabolic labelling with ^35S-methionine/cysteine (NEN) and co-immunoprecipitation have been previously described (O'Connor et al., 1998, Moriishi et al., 1999; Huang et al., 1998; Wilson-Annan et al., 2003). Briefly, mammalian pEF-based expression vectors for Bcl-w, BCl-xL, Bim, Bmf, Bad and Bik (O'Connor et al., 1998, Huang et al., 1998; Moriishi et al., 1999; Wilson-Annan et al., 2003) were transiently transfected using liposome mediated transfection (Lipofectamine™; Invitrogen). […] The immunoprecipitates were resolved by SDS-PAGE (Novex), transferred onto nitrocellulose membranes (APB) and the proteins detected by fluorography (Amplify; APB).

Bcl-xLΔC24 = biological target: T6, Bcl-xLΔC24 (Homo sapiens, UniProt Q07817); test: Co-immunoprecipitation / GST pull-down; format: binding; conditions: C-terminally truncated Bcl-xL (ΔC24)
T6 construct: expressed in transfected cells
Source text: as §4
as §2, with “proteins. After incubation at room temperature for 30 minutes the resin was pelleted and then washed twice with 200 μl of PBS containing 0.2% Tween 20.” for “proteins.”
Cell culture, stable transfections into FDC-P1, transient transfections into 293T human embryonic kidney cells, metabolic labelling with ^35S-methionine/cysteine (NEN) and co-immunoprecipitation have been previously described (O'Connor et al., 1998, Moriishi et al., 1999; Huang et al., 1998; Wilson-Annan et al., 2003). […] The immunoprecipitates were resolved by SDS-PAGE (Novex), transferred onto nitrocellulose membranes (APB) and the proteins detected by fluorography (Amplify; APB).

T6 sequence (Q07817 1-209 limits assumed, stated change not applied): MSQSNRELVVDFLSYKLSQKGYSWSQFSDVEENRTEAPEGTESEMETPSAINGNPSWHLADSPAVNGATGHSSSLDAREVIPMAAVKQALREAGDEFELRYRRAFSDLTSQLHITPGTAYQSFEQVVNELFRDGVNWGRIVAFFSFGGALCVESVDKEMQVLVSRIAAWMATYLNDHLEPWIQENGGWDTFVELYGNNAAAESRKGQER
T5 sequence (Q07817 whole entry, species assumed, the tested form may be a part): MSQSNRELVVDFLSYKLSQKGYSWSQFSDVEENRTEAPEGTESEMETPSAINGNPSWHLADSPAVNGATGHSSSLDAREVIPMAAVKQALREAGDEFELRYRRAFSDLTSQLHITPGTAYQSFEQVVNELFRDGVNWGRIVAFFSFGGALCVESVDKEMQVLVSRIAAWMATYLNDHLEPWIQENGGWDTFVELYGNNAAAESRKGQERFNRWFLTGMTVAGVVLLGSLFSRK

| binding in GST pull-down (full length Bcl-w [1]) | binding in GST pull-down (Bcl-wΔC10) | binding in GST pull-down (Bcl-wΔC29 [2]) | binding in GST pull-down (Bcl-wΔC20) | Kd (Bcl-wΔC29 [3]) | Kd (full length Bcl-w [4]) | Molecule | pro-survival activity (FDC-P1 myeloid cells) | further results |
| --- | --- | --- | --- | --- | --- | --- | --- | --- |
|  |  |  |  |  |  | Bcl-wΔC3: C-terminal truncated variant of Bcl-w lacking 3 residues (protein) single chain: MATPASAPDTRALVADFVGYKLRQKGYVCGAGPGEGPAADPLHQAMRAAGDEFETRFRRTFSDLAAQLHVTPGSAQQRFTQVSDELFQGGPNWGRLVAFFVFGAALCAESVNKEMEPLVGQVQEWMVAYLETRLADWIHSSGGWAEFTALYGDGALEEARRLREGNWASVRTVLTGAVALGALVTVGAFF | fully active |  |
|  |  |  |  |  |  | Bcl-wΔC10: SEQ ID NO:2; Bcl-w derivative lacking the last 10 residues, Ala128 substituted with glutamate (protein, Bcl-w deltaC10 A128E, Bcl-w derivative lacking the last 10 residues, Ala128 substituted with glutamate) MATPASAPDTRALVADFVGYKLRQKGYVCGAGPGEGPAADPLHQAMRAAGDEFETRFRRTFSDLAAQLHVTPGSAQQRFTQVSDELFQGGPNWGRLVAFFVFGAALCAESVNKEMEPLVGQVQEWMVEYLETRLADWIHSSGGWAEFTALYGDGALEEARRLREGNWASVRTVLTGAVALGAL | biologically inert |  |
| bound | bound | bound equally well | bound equally well | 11 nM | 24 nM | BimLΔC27: Purified, C-terminally truncated mouse BimL, a BH3-only protein (protein) GPLGSMAKQPSDVSSECDREGGQLQPAERPPQLRPGAPTSLQTEPQDRSPAPMSCDKSTQTPSPPCQAFNHYLSAMASIRQSQEEPEDLRPEIRIAQELRRIGDEFNETYTRRVFAND |  | increase in the association rate versus full length Bcl-w (Bcl-wΔC29 [3]; Bcl-wΔC29): three-fold |
| only bound wt BimLΔC27 | only bound wt BimLΔC27 | bound equally well | bound equally well | 13 nM | 1600 nM | BimLΔC27-L94A: Mutant version of C-terminally truncated BimL with BH3 domain mutation L94A (protein) GPLGSMAKQPSDVSSECDREGGQLQPAERPPQLRPGAPTSLQTEPQDRSPAPMSCDKSTQTPSPPCQAFNHYLSAMASIRQSQEEPEDLRPEIRIAQEARRIGDEFNETYTRRVFAND |  | decrease in the association rate versus wild-type Bim (full length Bcl-w [4]): 10 fold; increase in the dissociation rates versus wild-type Bim (full length Bcl-w [4]): five-fold; reduction of affinity versus wild-type Bim (full length Bcl-w [4]): over 60 fold |
|  |  |  |  |  |  | Bcl-wΔC5: C-terminal truncated variant of Bcl-w lacking 5 residues (protein) single chain: MATPASAPDTRALVADFVGYKLRQKGYVCGAGPGEGPAADPLHQAMRAAGDEFETRFRRTFSDLAAQLHVTPGSAQQRFTQVSDELFQGGPNWGRLVAFFVFGAALCAESVNKEMEPLVGQVQEWMVAYLETRLADWIHSSGGWAEFTALYGDGALEEARRLREGNWASVRTVLTGAVALGALVTVGA | behaved like the full-length protein | pro-survival activity (FDC-P1 myeloid cells; listed as ΔC5): fully active |
|  |  |  |  |  |  | BimL-L94A: BimL with BH3 mutation L94A (protein, left off: small tags and cut ends) MAKQPSDVSSECDREGGQLQPAERPPQLRPGAPTSLQTEPQDRSPAPMSCDKSTQTPSPPCQAFNHYLSAMASIRQSQEEPEDLRPEIRIAQEARRIGDEFNETYTRRVFANDYREAEDHPQMVILQLLRFIFRLVWRRH |  | association in cell extracts (full-length Bcl-xL): associates only with wild-type BimL; binding (Bcl-xLΔC24): bound wild-type BimL and the L94A mutant equally |
